For one assay, the target named is T1, BSA (Bos taurus, UniProt P02769).
T1 construct: The sheet prints only 'BSA'; also called bovine serum albumin; BSA background
Briefly: ELISA, BSA as background.

The target of assay [1] is T2, human ENO1 protein (human, UniProt P06733 1-434).
T2 construct: Purified human ENO1 protein coated on ELISA plates or injected as SPR analyte; also called alpha-enolase; enolase-1
Briefly: ENO1 binding ELISA. For orientation: In an ELISA, binding on a coated surface is turned into a signal by an enzyme label.

Assay [2] has as its target T2, human ENO1 protein. The assay can be described thus: ELISA, human ENO1 coated on the plate; upper plateau of the four parameter logistic fit. The method, then:
(§1) To determine the binding activity of each mutant antibody, 400 ng/100 μL of human ENO1 protein was coated on a 96-well ELISA overnight at 4° C. and the plate further was washed by PBS. The plate was blocked with 1% BSA (w/v) in PBS at room temperature for 1 hour, then washed again with 1×PBS. EN10.4, EN10.5, and humEN10 mAb antibodies were 2-fold serial diluted to 15 different concentrations and added to the plate at 37° C. for 1 hour. After the reaction was complete, the plate was washed 3 times with 1×PBS. A 1/8000 dilution of goat anti-human-HRP antibody was added and incubated at 37° C. for 1 hour, and then the plate washed 3 times with 1×PBS. The TMB substrate was added and reacted at room temperature for 30 minutes. The reaction was stopped by adding 1N HCl, and OD 450 was read to determine the activity. Every study was repeated three times. Data are presented as mean±SD. OD readings and concentrations of antibody were used to make a multiple scatter figure by Sigmaplot. The KD values were predicted by four parameter logistic fit.
(§2) There is no significant affinity difference among three different editions of hum EN10 mAb antibodies. […] Due to the structure similarity between cysteine and serine, EN10.5 is chosen to generate antibody production cell lines.

The target in assay [3] is T2, human ENO1 protein. The assay can be described thus: ELISA, 400 ng/100 µL human ENO1 coated, antibody in 15 two-fold dilutions, four parameter logistic fit. On the procedure: as §1, §2
In assay [4] the target is T2, human ENO1 protein. The assay can be described thus: SPR, BIAcore 2000, antibody on the chip, ENO1 0.3125 nM to 40 nM as analyte, 25 degree C. An excerpt: (§3) To know the binding kinetics difference among individual antibodies, surface plasmon resonance (SPR) measurement with a BIAcore 2000 (BIAcore. Inc., Piscataway, N.J.) was used as previously described (Karlsson & Falt, (1997) J. Immunol Methods 200:121-133). Carboxymethylated dextran biosensor chips (CM5, BIAcore Inc.) were activated with N-ethyl-N′-(3-dimethylaminopropyl)-carbodiimide hydrochloride (EDC) and N-hydroxysu-ccinimide (NHS) according to the supplier's instructions. Chimera EN10 mAb was diluted with 10 mM sodium acetate, pH 4.8, into 5 microgram/ml before injection at a flow rate of 20 micro L/minute to achieve approximately 100 response units (RU) of coupled protein followed by the injection of 1M ethanolamine to block unreacted groups. For kinetics measurements, two-fold serial dilutions of ENO1 (0.3125 nM to 40 nM) were injected in HBS-P Biacore running buffer provided by the manufacturer (BIAcore, Inc., Piscataway, N.J.) at 25 degree C. at a flow rate of 25 microL/min. and binding responses on the EN10 mAb were corrected by subtraction of responses on a blank flow cell. Association rates (kon or ka) and dissociation rates (koff or kd) were calculated using a simple one-to-one Langmuir binding model with separate fittings of kon and koff was used. (BIAcore™ Evaluation Software version 3.2).

Assay [5] deals with T2, human ENO1 protein. Briefly: told with the SPR results of FIG. 7B.
Excerpt: as §3

Another assay has as its target T3, A333 (human).
T3 construct: Sixth mutant of the alanine scan; It is named only on the sheets; the text lists five mutants
The assay can be described thus: ELISA, ENO1 mutant A333 coated, EN10.5 mAb titrated, four parameter logistic fit. On the procedure: (§4) To determine the binding activity of each mutant protein, 400 ng/100 μL of human ENO1 protein or mutated ENO1 protein was coated on a 96-well ELISA plate and incubated overnight at 4° C. and the plate was washed with PBS. The plate was blocked with 1% BSA (w/v) in PBS at room temperature for 1 hour, then washed again with 1×PBS. A primary antibody (EN10.5 mAb) was 2-fold serial diluted to 15 different concentrations and added to the plate at 37° C. for 1 hour. After the reaction was done, the plate was washed 3 times with 1×PBS. A 1/8000 dilution of goat anti-mouse-HRP antibody was added and incubated at 37° C. for 1 hour, then the plate was washed 3 times with 1×PBS. Then, TMB substrate was added and the reaction was allowed to proceed at room temperature for 30 minutes. The reaction was stopped by adding 1N HCl and OD450 was read to determine the activity. Each study was repeated three times. Data are presented as mean±SD. OD readings and concentrations of antibody were used to make a multiple scatter plot using Sigmaplot™. The KD values were predicted by four parameter logistic fit.
(§5) Thus, the crystal structure of ENO1 was downloaded from protein data bank (pdb-entry: 2PSN) to analyze residue positions from this region. […] Every purified ENO1 mutant protein was analyzed for any KD changes by ENO1 binding in ELISA. […]

The target in assay [6] is T4, ENO1 mutant D299 to alanine (human, UniProt P06733 1-434).
T4 construct: Expressed in E. coli and purified on Ni-agarose
T4 sequence (P06733 other isoform, or with tags, fused parts or gaps mutant limits assumed): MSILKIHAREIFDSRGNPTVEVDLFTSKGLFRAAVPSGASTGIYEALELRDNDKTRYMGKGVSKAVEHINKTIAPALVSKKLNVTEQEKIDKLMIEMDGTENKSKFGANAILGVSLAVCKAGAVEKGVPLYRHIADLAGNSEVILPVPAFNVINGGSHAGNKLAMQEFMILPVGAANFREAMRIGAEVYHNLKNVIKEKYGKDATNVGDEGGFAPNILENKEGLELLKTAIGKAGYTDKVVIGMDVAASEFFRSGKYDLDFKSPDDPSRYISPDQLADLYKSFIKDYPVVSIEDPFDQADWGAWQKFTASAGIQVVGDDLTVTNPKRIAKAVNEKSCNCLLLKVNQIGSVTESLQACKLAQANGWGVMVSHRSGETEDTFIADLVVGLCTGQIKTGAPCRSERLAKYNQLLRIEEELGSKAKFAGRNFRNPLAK
The assay can be described thus: ELISA, ENO1 mutant A299 coated, EN10.5 mAb titrated, four parameter logistic fit. On the procedure: as §4, §5

For assay [7], the target named is T5, ENO1 mutant Q298 to alanine (human, UniProt P06733 1-434).
T5 construct: Expressed in E. coli and purified on Ni-agarose
T5 sequence (P06733 other isoform, or with tags, fused parts or gaps mutant limits assumed): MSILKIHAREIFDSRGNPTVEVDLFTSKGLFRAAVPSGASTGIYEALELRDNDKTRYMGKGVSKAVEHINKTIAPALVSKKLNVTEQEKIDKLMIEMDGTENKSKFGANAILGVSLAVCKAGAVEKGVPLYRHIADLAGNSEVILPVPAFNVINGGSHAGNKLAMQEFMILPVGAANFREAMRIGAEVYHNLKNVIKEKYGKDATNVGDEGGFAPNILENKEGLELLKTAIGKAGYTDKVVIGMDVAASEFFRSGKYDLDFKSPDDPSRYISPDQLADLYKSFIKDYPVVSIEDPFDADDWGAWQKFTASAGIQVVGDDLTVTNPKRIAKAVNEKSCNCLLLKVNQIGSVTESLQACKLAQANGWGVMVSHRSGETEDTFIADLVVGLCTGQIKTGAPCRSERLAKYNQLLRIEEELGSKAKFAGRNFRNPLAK
The assay can be described thus: ELISA, ENO1 mutant A298 coated, EN10.5 mAb titrated, four parameter logistic fit. On the procedure:
as §4, §5

Assay [8] concerns the target T6, ENO1 mutant S310 to alanine (human, UniProt P06733 1-434).
T6 construct: Expressed in E. coli and purified on Ni-agarose
Briefly: ELISA, ENO1 mutant A310 coated, EN10.5 mAb titrated, four parameter logistic fit. On the procedure:
as §4, §5

Assay [9] addresses T7, ENO1 mutant G312 to alanine (human, UniProt P06733 1-434).
T7 construct: Expressed in E. coli and purified on Ni-agarose
The assay can be described thus: ELISA, ENO1 mutant A312 coated, EN10.5 mAb titrated, four parameter logistic fit. The method, then:
as §4, §5

Assay [10] has as its target T8, ENO1 mutant R327 to alanine (human, UniProt P06733 1-434).
T8 construct: Expressed in E. coli and purified on Ni-agarose
The assay can be described thus: ELISA, ENO1 mutant A327 coated, EN10.5 mAb titrated. On the procedure: as §4, §5

Where a chain is given by its changes, count along the chain named.

T2 sequence (P06733 whole entry): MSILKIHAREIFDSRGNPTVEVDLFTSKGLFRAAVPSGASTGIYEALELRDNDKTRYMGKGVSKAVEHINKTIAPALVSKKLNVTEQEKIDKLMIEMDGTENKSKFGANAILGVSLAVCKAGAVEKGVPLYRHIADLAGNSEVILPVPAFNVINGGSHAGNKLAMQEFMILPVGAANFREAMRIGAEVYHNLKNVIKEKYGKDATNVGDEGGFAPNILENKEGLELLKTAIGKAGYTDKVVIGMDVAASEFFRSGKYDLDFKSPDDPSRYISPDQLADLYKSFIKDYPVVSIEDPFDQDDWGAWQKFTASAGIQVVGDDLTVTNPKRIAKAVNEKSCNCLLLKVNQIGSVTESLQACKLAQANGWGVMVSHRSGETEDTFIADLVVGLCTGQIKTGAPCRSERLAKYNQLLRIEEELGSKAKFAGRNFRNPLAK
T6 sequence (P06733 other isoform, or with tags, fused parts or gaps mutant limits assumed): as the sequence (P06733 whole entry) above, with S310A counted along it
T1 sequence (P02769 25-607 limits assumed): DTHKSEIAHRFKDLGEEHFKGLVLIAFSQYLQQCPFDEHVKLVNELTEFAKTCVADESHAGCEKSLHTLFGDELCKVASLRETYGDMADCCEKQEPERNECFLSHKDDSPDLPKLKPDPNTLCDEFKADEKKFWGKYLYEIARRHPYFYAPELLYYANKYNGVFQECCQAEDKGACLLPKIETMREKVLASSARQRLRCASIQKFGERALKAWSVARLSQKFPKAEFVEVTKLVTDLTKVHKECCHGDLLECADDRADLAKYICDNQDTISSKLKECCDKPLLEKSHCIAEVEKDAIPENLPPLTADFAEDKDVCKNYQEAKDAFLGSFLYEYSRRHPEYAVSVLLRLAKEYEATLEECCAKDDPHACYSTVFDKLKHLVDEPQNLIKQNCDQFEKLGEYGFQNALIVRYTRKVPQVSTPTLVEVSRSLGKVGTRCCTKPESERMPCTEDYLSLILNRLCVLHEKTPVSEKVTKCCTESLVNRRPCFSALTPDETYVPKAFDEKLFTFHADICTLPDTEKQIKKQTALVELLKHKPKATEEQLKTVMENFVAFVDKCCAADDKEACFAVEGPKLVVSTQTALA
T7 sequence (P06733 other isoform, or with tags, fused parts or gaps mutant limits assumed): as the sequence (P06733 whole entry) above, with G312A counted along it
T8 sequence (P06733 other isoform, or with tags, fused parts or gaps mutant limits assumed): as the sequence (P06733 whole entry) above, with R327A counted along it

B1: EN10 mAb (antibody, V domains shown)
VH: EVQLQQSGPELVKPGASVKMSCKASGYTFTSCVMNWVKQKPGQGLEWIGYINPYNDGTKYNEKFKGKATLTSDKSSSTAYMELSSLTSEDSAVYYCAREGFYYGNFDNWGQGTTLTVSS
VL: DIQMTQSPASLSASVGETVTITCRASENIYSYLTWYQQKQGKSPQLLVYNAKTLPEGVPSRFSGSGSGTQFSLKINSLQPEDFGSYYCQHHYGTPYTFGGGTKLEITR
notes: Mouse monoclonal antibody purified from hybridoma ascites; also called anti-human ENO1 antibody EN10 mAb; EN10 mAb antibody
Take B1: the binding result with BSA is given as “no binding”.

B2: hum EN10 mAb IMGT (antibody, V domains shown)
VH: QVQLVQSGAEVKKPGASVKVSCKASGYTFTSCVMNWVRQAPGQGLEWMGYINPYNDGTKYNEKFKGRVTMTTDTSTSTAYMELRSLRSDDTAVYYCAREGFYYGNFDNWGQGTLVTVSS
VL: DIQMTQSPSSLSASVGDRVTITCRASENIYSYLTWYQQKPGKAPKLLIYNAKTLPEGVPSRFSGSGSGTDFTLTISSLQPEDFATYYCQHHYGTPYTFGQGTKLEIKR
notes: Humanized antibody, human IgG; also called Hum EN10 IMGT; hum ENO10mAb IMGT
In general, Kd refers to the concentration at which binding is half-saturated. The low end stands for a tighter complex, the high end for a looser complex. For B2, the Kd with human ENO1 protein [1] is 0.0365 nM; with human ENO1 protein [3], 0.163 nM; with human ENO1 protein [4], 0.219 nM; in the assay with human ENO1 protein [5] it was approximately 0.203 nM. The molecule also registered a Max. with human ENO1 protein [2] of 2.99 O.D 450 nm.

B3: hum EN10 mAb 4D5 (antibody, V domains shown)
VH: EVQLVESGGGLVQPGGSLRLSCAASGYTFTSCVMNWVRQAPGKGLEWVAYINPYNDGTKYNEKFKGRFTISRDDSKNTLYLQMNSLRAEDTAVYYCAREGFYYGNFDNWGQGTLVTVSS
VL: B2 VL
notes: Humanized antibody, human IgG; also called hum ENO10mAb 4D5; hum EN10 mAb 45D
Regarding B3, in the assay with human ENO1 protein [4], the Kd is 0.5 nM.

B4: EN10.5 (antibody, V domains shown)
VH: B2 VH with C32S
VL: B2 VL
notes: same light chain as humEN10 mAb; human IgG; also called EN10.5 mAb; mAb EN10.5
With B4, the equilibrium dissociation constant (Kd) with A333 stood at 0.21 nM; in assay [6] it was 64.3 nM; in assay [7], 0.238 nM; in [8] it was 0.217 nM; with human ENO1 protein [3], 0.157 nM; in [9] it was 0.2 nM. In the assay with human ENO1 protein [2], the Max. stood at 2.97 O.D 450 nm. Besides, in assay [10], the binding result was “no binding (tested: about 1e-7 M)”.

B5: EN10.4 (antibody, V domains shown)
VH: B2 VH with C32A
VL: B2 VL
notes: same light chain as humEN10 mAb; human IgG from FreeStyle293 cells; also called EN10.4 mAb; alanine mutant of humEN10 mAb antibody
Molecule B5 yielded a Max. in the assay with human ENO1 protein [2] of 2.94 O.D 450 nm. This molecule also returned a Kd with human ENO1 protein [3] of 0.14 nM.

The record behind these values is patent publication US20190322762A1 (DEVELOPMENT CENTER FOR BIOTECHNOLOGY, published 2019).
